Experimental data published in PMC3257248, “Wnt4 Participates in the Formation of Vertebrate Neuromuscular Junction” (PLoS ONE, 2012).

Target: T1, MuSK (muscle specific kinase), full length (rat, UniProt Q62838 22-868)
T1 sequence (looked up): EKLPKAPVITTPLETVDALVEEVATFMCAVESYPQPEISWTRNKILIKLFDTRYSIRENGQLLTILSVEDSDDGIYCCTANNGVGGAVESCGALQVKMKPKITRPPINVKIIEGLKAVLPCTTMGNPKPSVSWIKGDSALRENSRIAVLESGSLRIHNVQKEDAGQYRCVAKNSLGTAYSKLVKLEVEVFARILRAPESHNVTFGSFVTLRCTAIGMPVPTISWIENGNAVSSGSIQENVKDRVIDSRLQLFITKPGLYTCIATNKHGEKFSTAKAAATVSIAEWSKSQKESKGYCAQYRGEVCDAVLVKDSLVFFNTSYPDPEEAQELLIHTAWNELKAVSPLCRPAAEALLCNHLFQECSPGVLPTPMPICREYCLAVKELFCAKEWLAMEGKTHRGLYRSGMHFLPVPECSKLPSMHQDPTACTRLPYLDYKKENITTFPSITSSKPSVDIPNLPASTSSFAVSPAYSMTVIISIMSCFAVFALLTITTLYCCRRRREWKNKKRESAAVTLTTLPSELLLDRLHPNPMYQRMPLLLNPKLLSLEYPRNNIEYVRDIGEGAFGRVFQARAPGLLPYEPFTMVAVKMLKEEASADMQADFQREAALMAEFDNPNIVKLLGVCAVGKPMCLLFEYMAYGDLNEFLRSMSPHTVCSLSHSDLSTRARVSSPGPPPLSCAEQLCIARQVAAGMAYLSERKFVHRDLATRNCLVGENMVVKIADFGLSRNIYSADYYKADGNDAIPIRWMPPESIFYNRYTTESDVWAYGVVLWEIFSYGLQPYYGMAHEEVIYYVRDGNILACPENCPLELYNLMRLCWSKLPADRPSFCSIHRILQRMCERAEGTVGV
Experiment: cell-based or functional assay

B1: HA-tagged Wnt4 (ligand, UniProt P22724 23-351, looked up)
chain: SNWLYLAKLSSVGSISEEETCEKLKGLIQRQVQMCKRNLEVMDSVRRGAQLAIEECQYQFRNRRWNCSTLDSLPVFGKVVTQGTREAAFVYAISSAGVAFAVTRACSSGELEKCGCDRTVHGVSPQGFQWSGCSDNIAYGVAFSQSFVDVRERSKGASSSRALMNLHNNEAGRKAILTHMRVECKCHGVSGSCEVKTCWRAVPPFRQVGHALKEKFDGATEVEPRRVGSSRALVPRNAQFKPHTDEDLVYLEPSPDFCEQDIRSGVLGTRGRTCNKTSKAIDGCELLCCGRGFHTAQVELAERCGCRFHWCCFVKCRQCQRLVEMHTCR
- MuSK tyrosine phosphorylation (pTyr blot of HA immunoprecipitates, +Wnt4/-Wnt4 ratio) in HEK 293T cells cotransfected with HA-MuSK with or without Wnt4-HA: 2 fold
